# EP4748860A1 (Kanglitai Biomedical (Qingdao) Co., Ltd., dated 2026)
# Target: BSA (UniProt P02769 25-607)
# Test: ELISA, antigen coated at 200 ng per well
# Sequence of BSA (P02769 25-607 limits assumed): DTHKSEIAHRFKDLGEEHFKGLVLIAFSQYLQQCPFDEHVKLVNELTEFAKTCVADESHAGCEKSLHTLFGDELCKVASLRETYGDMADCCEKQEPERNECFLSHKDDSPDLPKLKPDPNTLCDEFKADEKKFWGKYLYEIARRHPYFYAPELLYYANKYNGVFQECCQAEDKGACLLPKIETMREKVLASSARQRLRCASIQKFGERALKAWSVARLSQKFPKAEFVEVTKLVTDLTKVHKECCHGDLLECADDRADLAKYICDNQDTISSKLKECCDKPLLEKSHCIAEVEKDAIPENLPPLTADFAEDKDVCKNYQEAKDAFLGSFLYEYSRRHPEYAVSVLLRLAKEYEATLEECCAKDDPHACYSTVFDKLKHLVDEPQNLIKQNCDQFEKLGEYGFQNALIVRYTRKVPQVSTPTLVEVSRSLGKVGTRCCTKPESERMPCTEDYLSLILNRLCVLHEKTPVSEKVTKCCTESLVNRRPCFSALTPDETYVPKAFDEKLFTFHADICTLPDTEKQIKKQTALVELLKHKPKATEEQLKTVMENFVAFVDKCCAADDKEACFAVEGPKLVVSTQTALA
row,Binder,binding result
1,"HER2-8-hFc (Fc fusion, VHH gene cloned into pABG1-Fc (human Fc fragment), expressed in FreeStyle 293-F cells, Protein A purified; also called HER2-8-Fc; not shown: human Fc fragment of vector pABG1-Fc) QVQLQESGGGLVQAGGSLRLSCAASGRTFSGAGVGWFRQDPEKEREFVAAIAWSGGSTRYADSVKGRFTISRDNTENTVFLQMNNLRPEDTAVYYCAATRRFYSGLTYTQRDVYDNWGQGTQVTVSS",no binding (tested: 0.2 µg per well)
2,"HER2-11-hFc (Fc fusion, VHH gene cloned into pABG1-Fc (human Fc fragment), expressed in FreeStyle 293-F cells, Protein A purified; also called HER2-11-Fc; not shown: human Fc fragment of vector pABG1-Fc) QVQLQESGGGLVQAGGSLRLSCAASGHTVSRNMMGWFRQAPGKEREFVSAIAWNGEDTYYAESVEGRFTISKDNVKNTIYLQMNSLKPEDTAVYYCAASLFRLWNSATAGNNRVYHYWGQGTQVTVSS",no binding (tested: 0.2 µg per well)

# Results, then the binder that gave them:
row,binding result,Binder
1,no binding (tested: 0.2 µg per well),"HER2-3-hFc (Fc fusion, VHH gene cloned into pABG1-Fc (human Fc fragment), expressed in FreeStyle 293-F cells, Protein A purified; also called HER2-3-Fc; not shown: human Fc fragment of vector pABG1-Fc) QVQLQESGGGLVQAGDSLRLSCAASGLTFSTVGMGWFRQVLGMEREPVAGISWTGNVIGYAESVTGRFTISRDSAKNTVYLQMNSLKPEDTAVYYCAARRRGMSSYDYWGQGTQVTVSS"
2,no binding (tested: 0.2 µg per well),"HER2-10-hFc (Fc fusion, VHH gene cloned into pABG1-Fc (human Fc fragment), expressed in FreeStyle 293-F cells, Protein A purified; also called HER2-10-Fc; not shown: human Fc fragment of vector pABG1-Fc) QVQLQESGGGLVQPGGSLRLSCTAARNIFGRNVMGWFRQAPGKQREFVAHITGGSAVIYATSVKGRFTISRDNAKNTVYLQMNNLTLDDTAVYFCRAVNDDLWGQGTQVTVSS"
